Target: GST–Rab7 (wild type, loaded with GTP or GTPγS) (UniProt P51149 1-207)
Assay: pull-down

Chain of GST–Rab7 (wild type, loaded with GTP or GTPγS) (P51149 whole entry): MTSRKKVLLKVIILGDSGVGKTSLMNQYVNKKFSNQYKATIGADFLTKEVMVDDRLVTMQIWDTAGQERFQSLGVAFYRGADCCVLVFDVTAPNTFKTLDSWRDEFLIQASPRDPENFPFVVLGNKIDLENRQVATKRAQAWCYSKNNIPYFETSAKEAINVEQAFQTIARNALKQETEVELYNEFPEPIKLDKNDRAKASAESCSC

fold increase of binding in the presence of m9: ~4 fold
B1: in vitro–translated 35S-labeled ORP1L (full length) (natural protein, human, UniProt Q9BXW6-1 1-950, looked up)
chain: MNTEAEQQLLHHARNGNAEEVRQLLETMARNEVIADINCKGRSKSNLGWTPLHLACYFGHRQVVQDLLKAGAEVNVLNDMGDTPLHRAAFTGRKELVMLLLEYNADTTIVNGSGQTAKEVTHAEEIRSMLEAVERTQQRKLEELLLAAAREGKTTELTALLNRPNPPDVNCSDQLGNTPLHCAAYRAHKQCALKLLRSGADPNLKNKNDQKPLDLAQGAEMKHILVGNKVIYKALKRYEGPLWKSSRFFGWRLFWVVLEHGVLSWYRKQPDAVHNIYRQGCKHLTQAVCTVKSTDSCLFFIKCFDDTIHGFRVPKNSLQQSREDWLEAIEEHSAYSTHYCSQDQLTDEEEEDTVSAADLKKSLEKAQSCQQRLDREISNFLKMIKECDMAKEMLPSFLQKVEVVSEASRETCVALTDCLNLFTKQEGVRNFKLEQEQEKNKILSEALETLATEHHELEQSLVKGSPPASILSEDEFYDALSDSESERSLSRLEAVTARSFEEEGEHLGSRKHRMSEEKDCGGGDALSNGIKKHRTSLPSPMFSRNDFSIWSILRKCIGMELSKITMPVIFNEPLSFLQRLTEYMEHTYLIHKASSLSDPVERMQCVAAFAVSAVASQWERTGKPFNPLLGETYELVRDDLGFRLISEQVSHHPPISAFHAEGLNNDFIFHGSIYPKLKFWGKSVEAEPKGTITLELLEHNEAYTWTNPTCCVHNIIVGKLWIEQYGNVEIINHKTGDKCVLNFKPCGLFGKELHKVEGYIQDKSKKKLCALYGKWTECLYSVDPATFDAYKKNDKKNTEEKKNSKQMSTSEELDEMPVPDSESVFIIPGSVLLWRIAPRPPNSAQMYNFTSFAMVLNEVDKDMESVIPKTDCRLRPDIRAMENGEIDQASEEKKRLEEKQRAARKNRSKSEEDWKTRWFHQGPNPYNGAQDWIYSGSYWDRNYFNLPDIY
modifications: 35S-labeled
